According to IntAct's records for PubMed 20190753:

B1: Vacuolar protein sorting-associated protein 33B (Homo sapiens), Q9H267 (parent)
chain: MAFPHRPDAPELPDFSMLKRLARDQLIYLLEQLPGKKDLFIEADLMSPLDRIANVSILKQHEVDKLYKVENKPALSSNEQLCFLVRPRIKNMRYIASLVNADKLAGRTRKYKVIFSPQKFYACEMVLEEEGIYGDVSCDEWAFSLLPLDVDLLSMELPEFFRDYFLEGDQRWINTVAQALHLLSTLYGPFPNCYGIGRCAKMAYELWRNLEEEEDGETKGRRPEIGHIFLLDRDVDFVTALCSQVVYEGLVDDTFRIKCGSVDFGPEVTSSDKSLKVLLNAEDKVFNEIRNEHFSNVFGFLSQKARNLQAQYDRRRGMDIKQMKNFVSQELKGLKQEHRLLSLHIGACESIMKKKTKQDFQELIKTEHALLEGFNIRESTSYIEEHIDRQVSPIESLRLMCLLSITENGLIPKDYRSLKTQYLQSYGPEHLLTFSNLRRAGLLTEQAPGDTLTAVESKVSKLVTDKAAGKITDAFSSLAKRSNFRAISKKLNLIPRVDGEYDLKVPRDMAYVFGGAYVPLSCRIIEQVLERRSWQGLDEVVRLLNCSDFAFTDMTKEDKASSESLRLILVVFLGGCTFSEISALRFLGREKGYRFIFLTTAVTNSARLMEAMSEVKA
partner: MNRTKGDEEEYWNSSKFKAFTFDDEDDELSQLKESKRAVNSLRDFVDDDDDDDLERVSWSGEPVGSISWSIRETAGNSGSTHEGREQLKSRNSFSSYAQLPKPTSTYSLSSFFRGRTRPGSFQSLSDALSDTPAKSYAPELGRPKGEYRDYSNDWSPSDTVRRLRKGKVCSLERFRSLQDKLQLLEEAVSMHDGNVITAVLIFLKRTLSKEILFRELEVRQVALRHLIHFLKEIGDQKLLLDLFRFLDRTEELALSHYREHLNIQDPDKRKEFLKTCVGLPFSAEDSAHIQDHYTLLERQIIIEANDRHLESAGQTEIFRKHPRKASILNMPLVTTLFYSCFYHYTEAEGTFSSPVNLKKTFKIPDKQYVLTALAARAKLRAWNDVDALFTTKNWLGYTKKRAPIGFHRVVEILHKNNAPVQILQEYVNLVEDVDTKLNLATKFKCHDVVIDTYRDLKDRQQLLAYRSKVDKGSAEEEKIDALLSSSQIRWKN

Variants of: B1
Settings: with spe39_human VIPAS39, Q9H9C1

Variant	effect of a mutation on the interaction
L30P	decreasing interaction
